# Measured values: paper PMC1887683
# Target: STAT1 (activated; HepG2 nuclear extract, IL-6) (UniProt P42224)
# Test: competition EMSA
# Settings: scale: fold competition efficiency vs c-myc E2F
# Sequence of STAT1 (activated; HepG2 nuclear extract, IL-6) (P42224 whole entry): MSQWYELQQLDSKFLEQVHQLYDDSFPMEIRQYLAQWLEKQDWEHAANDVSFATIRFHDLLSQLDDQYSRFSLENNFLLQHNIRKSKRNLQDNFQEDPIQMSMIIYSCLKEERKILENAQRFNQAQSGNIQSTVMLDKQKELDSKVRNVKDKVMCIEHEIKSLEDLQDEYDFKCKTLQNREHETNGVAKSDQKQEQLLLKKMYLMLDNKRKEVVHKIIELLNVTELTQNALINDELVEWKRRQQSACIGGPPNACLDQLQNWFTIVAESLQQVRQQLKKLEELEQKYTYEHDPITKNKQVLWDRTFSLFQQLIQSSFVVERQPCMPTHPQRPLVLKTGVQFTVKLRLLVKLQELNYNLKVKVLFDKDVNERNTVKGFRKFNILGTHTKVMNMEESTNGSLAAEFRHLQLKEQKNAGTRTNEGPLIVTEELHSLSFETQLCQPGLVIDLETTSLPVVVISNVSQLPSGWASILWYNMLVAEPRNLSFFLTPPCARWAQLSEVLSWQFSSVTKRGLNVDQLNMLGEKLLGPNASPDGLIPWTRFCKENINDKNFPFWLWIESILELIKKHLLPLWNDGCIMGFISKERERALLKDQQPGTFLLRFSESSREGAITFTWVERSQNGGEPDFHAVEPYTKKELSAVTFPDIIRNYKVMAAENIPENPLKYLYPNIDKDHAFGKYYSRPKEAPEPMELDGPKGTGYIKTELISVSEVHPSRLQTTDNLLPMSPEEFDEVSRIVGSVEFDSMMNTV
substance,measurement,value
APRE (alpha2-macroglobulin),binding signal,5
